Assay results: patent US20230272097A1 (PETMEDIX, published 2023)

T1: canine OX40L, full length membrane form, expressed on the cell surface (HEK293 or MEF cells stably … (canine (dog, beagle)))
T1 construct: The same protein is used on HEK293 and on MEF cells; also called HEK-OX40L; OX40L expressing HEK293 cells
T1 chain: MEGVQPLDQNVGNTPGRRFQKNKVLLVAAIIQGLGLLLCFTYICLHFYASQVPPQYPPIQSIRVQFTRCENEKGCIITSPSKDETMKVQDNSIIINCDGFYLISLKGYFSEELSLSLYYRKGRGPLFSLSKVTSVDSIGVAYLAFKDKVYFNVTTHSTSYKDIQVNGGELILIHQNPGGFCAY

T2: OX40L ECD-TNCc-HIS protein (trimeric soluble canine OX40L extra cellular domain probe, HIS tagged) (canine; chicken, UniProt P10039 110-139, limits assumed)
T2 construct: domain: trimerization domain; also called HIS tagged trimeric OX40L protein; not shown: HIS tag
T2 sequence: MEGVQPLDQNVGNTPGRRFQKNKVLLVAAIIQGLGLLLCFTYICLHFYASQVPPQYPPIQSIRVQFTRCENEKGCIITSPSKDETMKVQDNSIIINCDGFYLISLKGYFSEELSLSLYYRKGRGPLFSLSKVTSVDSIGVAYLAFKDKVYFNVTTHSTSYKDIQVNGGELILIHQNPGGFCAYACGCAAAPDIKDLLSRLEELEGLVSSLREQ


Columns and labels:
[1] = target: T1, canine OX40L, full length membrane …; test: cell binding (flow cytometry on cells expressing OX40L; cell line not given)
Procedure: (§1) Specific binding to cells expressing OX40L is confirmed by purifying mAb from the CHO supernatant using protein A resin (MabSelect, Cytiva). In brief, MabSelect resin is washed in PBS and diluted to have a 10% slurry. An appropriate volume of the 10% slurry is added to the supernatant and incubated 5-10′ at RT before being loaded into a filter column. After 3 washes with PBS the antibodies are eluted using IgG elute buffer (Pierce) directly into neutralisation buffer (10 mM TRIS pH8.0), 8:1 IgG elute: neutralisation buffer ratio. Antibody solutions are quantified measuring absorbance at 280 nm, using a Nanodrop One (Thermo Fisher). Serial 1:3 dilutions of purified antibodies ranging from 6.6 μM to 66 pM are prepared in FACS buffer and are used to stain HEK293 or MEF cells (or any other commonly used cell lines) expressing canine OX40L.

[2] = target: T2, OX40L ECD-TNCc-HIS protein (trimeric …); test: SPR exp 1, Biacore 8K, OX40L ECD-TNCc-HIS amine coupled to CM5 chip, antibody as analyte, Kd at equilibrium
From the text: (§2) To determine affinity by SPR (Biacore 8K, Cytivia), purified OX40L ECD-TNCc-HIS protein is covalently bound at low density to the surface of a CM5 sensor chip (Cytivia) by amine coupling, using the manufacturer's recommended protocol. Candidate antibodies are subsequently passed across the chip surface at a range of concentrations and affinity determined using the dedicated software (Biacore Insight Evaluation Software).

[3] = target: T2, OX40L ECD-TNCc-HIS protein (trimeric …); test: SPR exp 2, Biacore 8K, OX40L ECD-TNCc-HIS amine coupled to CM5 chip, antibody as analyte, Kd at equilibrium
From the text: as §2

[4] = target: T1, canine OX40L, full length membrane …; test: flow cytometry titration on HEK cells expressing OX40L; Kd (EC50) from GeoMean vs concentration, Prism four parameter fit
Procedure: FIG. 10. Affinity determination for antibodies that bind OX40L on HEK cells expressing OX40L. Graphs are generated by plotting GeoMean arbitrary units (AU) against Log₁₀ [concentration]. Kd (EC₅₀) was calculated using Prism.
as §1

[5] = target: T1, canine OX40L, full length membrane …; test: flow cytometry titration on MEF cells expressing OX40L; Kd (EC50) from GeoMean vs concentration, Prism four parameter fit
Procedure: FIG. 11. Affinity determination for antibodies that bind OX40L on MEF cells expressing OX40L. Graphs are generated by plotting GeoMean arbitrary units (AU) against Log₁₀ [concentration]. Kd (EC₅₀) was calculated using Prism.
as §1

Kd [1] [nM] | Kd [2] [nM] | Kd [3] [nM] | Kd [4] [nM] | Kd [5] [nM] | Binder
74.6 | 19.7 | 6.61 | 5.12 | 1.11 | PMX014 (antibody, V domains shown, Canine variable regions) VH: EVQLVESGGDLVKPGGSLRLSCVASGFTFSNFHMSWVRQAPGKGLQWVAYINSGGFNINYEDAVRGRFTISRDNAKNTLYLQMNSLRAEDTAIYYCARDWDTHLDTNWFYYWGQGTLVTVSS VL: SYVLTQLPSKNVTLKQSAHITCRGDNIGSKSVHWYQQKLGQAPVLIIYYDSSRPTGIPERFSGANSGNTATLTISGALAEDEADYYCQVWDISAKASVFGGGTHLTVL
37 | 14.8 | 14.8 | 3 |  | PMX012 (antibody, V domains shown, Canine variable regions from Ky9 mice; human kappa or canine kappa/lambda light constant) VH: EVQLVESGGDLVKPGGSLRLACVTSGFTFSSYHMNWVRQAPGKGLQWVAYINTGGTVTTYADAMNADAVRGRFTISRDNVKNTLYLQMNRLRAEDTAVYYCARGYGVFDYWGQGTLVTVSP VL: SYVLTQLPSKNVTLKQPAHITCGGDNIGSKSVHWYQQKLGQAPVLIIYYDSRRPTGIPERFSGANSGNTATLTISGALAEDEADYYCQVWDNSDRASWVFGEGTQLTVL
